Results from patent US20230270832A1, “MAGEA1 IMMUNOGENIC PEPTIDES, BINDING PROTEINS RECOGNIZING MAGEA1 IMMUNOGENIC PEPTIDES, AND USES THEREOF” (TScan Therapeutics, Inc., priority 2021, published 2023).

Tests used:
[1] = tested on: >600,000 protein fragments spanning every wild-type (w.t.) human protein; assay: Genome-wide SafetyScan off-target screen; assay type: cell-based; settings: overexpressed 90-aa protein fragments
Method: Primary CD8+ T cells were prepared as described above to express HN-P32-41. Triplicate wells transduced with lentiviral particles to express HN-32-41 combined in fresh complete T cell medium, and expanded until Day 5 in a G-Rex° 10 culture vessel (Wilson Wolf). On Day 5, cells were harvested, and cell concentrations were adjusted to 100 ×10^6 CD3^+ T cells/mL in EasySep buffer (StemCell Inc) and FcBlock solution with CD34 magnetic beads (Miltenyi) for 30 minutes at 4C, washed with EasySep buffer, and separated using a QuadroMACS® Separator and LS columns (Miltenyi). Isolated cells were washed and resuspended in fresh complete T cell medium and expanded in G-Rex®10 flasks (Wilson Wolf) until day 12, at which point cells were frozen in CryoStor® CS10 and stored at liquid nitrogen until use.
CD8+ T cells expressing HN-32-41 were thawed and restimulated (further expanded) by co-culturing T cells with irradiated (60 grays) allogeneic PBMCs in the presence of 0.1 ug/mL anti-CD3 (OKT3, eBioscience) and 50 U/mL recombinant IL-2 (Peprotech) in fresh T cell medium (RPMI 1640 supplemented with 10% heat-inactivated fetal bovine serum (FBS), 100 IU/mL penicillin, 100 μg/mL streptomycin, recombinant human IL-2 [50 U/mL, PeproTech]) in GRex® 100 flasks (Wilson Wolf). 50 U/mL recombinant IL-2 was added to expanding cells every other day until day 6. […]

[2] = tested on: C*07:02 HEK reporter cells that express the indicated full length proteins; assay: Full-length ORF validation of putative off-targets in C*07:02 HEK reporter cells; assay type: cell-based, human; settings: co-culture with C*07:02 HEK reporter cells
Method: Hit that validated as targets using 90-mers were advanced to testing against full protein open reading frames (ORFs). ORFs for TLE3 and SLC6A13 were cloned from the ORFeome Collaboration Library (Horizon). LAMB4 intron retention ORF was synthesized (GenScript). These clones were cloned into lentiviral over-expression vectors and delivered to C*07:02 HEK reporter cells by transduction followed by selection with puromycin. Cells were seeded a day before co-culture with T cells expressing HN-32-41 at an E:T ratio of ˜2:1. After 4 hours, the co-cultures were harvested by pipetting and fluorescence of the reporter was detected using a CytoFLEX™ S instrument (Beckman Coulter). The PIGO ORF clone was purchased from Genscript in pcDNA3.1 overexpression vector and delivered by transient transfection using FuGENE6 reagent (Promega). C*07:02 HEK reporter cells were seeded to adhere overnigth, then transiently transfected with the PIGO ORF. The media was refreshed then cells expant overnight. Cells were co-cultured with T cells expressing HN-32-41 at an E:T of ˜2:1. After 4 hours, the co-cultures were harvested by pipetting and fluorescence of the reporter was detected using a CytoFLEX™ S instrument (Beckman Coulter).

LAMB4-IR peptide = assay: Peptide validation of off-target with dilutions of cross-reactive peptide; assay type: cell-based, human; settings: LAMB4-IR peptide below 2,000 ng/mL
Method: MHC-Flurry (O'Donnell et al. (2020) Cell Systems 42-48.e7) was used to predict peptides from LAMB4-IR with high-affinity binding to C*07:02. Predicted high-binding peptides were synthesized (GenScript). Monoallelic C*07:02 HEK293T reporter cells were pulsed with serial dilutions 0-20,000 ng/ml of the top peptide candidate for 1 hour and then co-cultured with TCR-transduced T cells (HN-32-41) at an E:T ratio of ˜2:1. After 4 hours, the cultures were harvested by pipetting and fluorescence of the reporter was detected using a CytoFLE.X™ S instrument (Beckman Coulter).

B1: TCR 32-41: T cell receptor recognizing MAGEA1 epitope presented by HLA-C*07:02; alpha TRAV27/TRAJ52, beta TRBV12-4/TRBJ1-4; wild type, HM and MGTM sequences listed (protein)
TCR alpha: QLLEQSPQFLSIQEGENLTVYCNSSSVFSSLQWYRQEPGEGPVLLVTVVTGGEVKKLKRLTFQFGDARKDSSLHITAAQPGDTGLYLCAGDESISYGKLTFGQGTILTVHPNIQNPEPAVYQLKDPRSQDSTLCLFTDFDSQINVPKTMESGTFITDKCVLDMKAMDSKSNGAIAWSNQTSFTCQDIFKETNATYPSSDVPCDATLTEKSFETDMNLNFQNLLVMVLRILLLKVAGFNLLMTLRLWSS
TCR beta: DAGVIQSPRHEVTEMGQEVTLRCKPISGHDYLFWYRQTMMRGLELLIYFNNNVPIDDSGMPEDRFSAKMPNASFSTLKIQPSEPRDSAVYFCASSFLGWNEKLFFGSGTQLSVLEDLRNVTPPKVSLFEPSKAEIANKQKATLVCLARGFFPDHVELSWWVNGKEVHSGVCTDPQAYKESNYSYCLSSRLRVSATFWHNPRNHFRCQVQFHGLSEEDKWPEGSPKPVTQNISAEAWGRADCGITSASYQQGVLSATILYEILLGKATLYAVLVSTLVVMAMVKRKNS
putative off-targets identified in screen [1]: seven potential off-targets
reactivity to putative off-targets as full-length proteins (activation of the reporter, % IFP) [2]: no activation of the reporter, measured as % IFP, except for LAMB4-IR
reactivity to putative off-targets as full-length proteins (activation of the reporter, % IFP) ([2]; listed as TCR41): did not appreciably react with cells expressing putative off-targets
reactivity to cross-reactive off-target peptide (LAMB4-IR peptide): poor reactivity
